According to patent US20160272707A1 (COMPUGEN, published 2016):

T1: mouse VSTM5 (SEQ ID NO:11) expressed on HEK-293T cells (mouse, UniProt Q9D806 28-199)
T1 construct: also called mouse VSTM5 untagged
T1 sequence: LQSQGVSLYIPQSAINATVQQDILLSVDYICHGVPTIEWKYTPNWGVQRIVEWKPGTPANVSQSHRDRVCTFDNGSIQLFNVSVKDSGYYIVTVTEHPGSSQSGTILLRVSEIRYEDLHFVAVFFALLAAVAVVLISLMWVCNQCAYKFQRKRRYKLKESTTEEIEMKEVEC

T2: VSTM5 monomer (UniProt A8MXK1 29-147, limits assumed)
T2 construct: also called monomeric VSTM5 antigen; VSTM5 antigen
T2 sequence (looked up): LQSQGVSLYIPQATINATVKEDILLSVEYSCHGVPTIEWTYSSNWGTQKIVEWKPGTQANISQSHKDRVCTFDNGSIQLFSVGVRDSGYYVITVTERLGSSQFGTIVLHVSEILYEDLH

B1: 50-01.A04 (antibody, V domains shown)
VH: QVQLVQSGAEVKKPGESLKISCKGSGYDFNNYWIGWVRQTPEKGLEWMGIVYPGDHPGDYHIRYGPSFQGQVTISADRSITTAYLQWRNLKASDTAMYYCARLGSSKDLDYWGQGTLVTVSS
VL: EIVLTQSPATLSLSPGERATLSCRASQSVSGHLDWYQQKPGQSPRLLIYDASNRATGIPARFSGSGSGTDFSLTISSLEPEDFAVYYCQHRSNWPWTFGQGTKVEIKR
B2: 49-02.C11 (antibody, V domains shown)
VH: EVQLVESGGGLVQPGGSLRLSCAASGFTFSSYAMTWVRQAPGKGLEWVSVISGGGGTTYYADSVKGRFTISRDNSKNTLYLQMSSLRAEDTAVYYCAKGYSSGWPYYFDYWGQGTLVTVSS
VL: EIVLTQSPGTLSLSPGERATLSCRASQSGVTNFLAWYQQKPGQAPRLLIYATSSRATGIPDRFSGSASGTDFTLTITRLEPEDFAVYFCQQYASSPLTFGGGTKVEIKR
notes: also called 49-02.011
B3: 50-01.E02 (antibody, V domains shown)
VH: QVQLVESGGGVVQPGGSLKLSCVASGFTFSAYAMNWVRLVPGKGLEWVSGISGNGYSTFYPDSVQGRFTVSRDNSKNTLFLQIDRLTGGDTAIYYCAKVQTTVITPFQNWGQGTLVTVSS
VL: EIVLTQSPGTLSLSPGERATLSCRASQNIGSNFLAWYQQKPGQAPRLLIYGASTRANGIPDRFSGSKSETDFTLTISRLEPEDFAVYYCQQYDNSPYTFGQGTKLEIKR
B4: 50-01.D01 (antibody, V domains shown)
VH: QVQLVESGGGVVQPGRSRRLSCAASGFAFRNYGMHWVRQAPGKGLEWVAFISQNGGKKYYADSVTGRFTVSRDNSKNTLYLQINSLTTDDTAVFYCARSGSGSWGYSDFPGPFDHWGQGSLVTVSS
VL: EIVLTQSPGTLSLSPGERATLSCRASQNIFISFLAWYQQKPGQAPRLLLYGASNRATGIPDRFSGSGSGTDFTLTISRLEPEDFAVYYCQQYGSSPLTFGGGTKVEIKR
notes: also called 50-01.001
B5: 52-01.A07 (antibody, V domains shown)
VH: EVQLVESGGGLVQPGRSLRLSCAASGFTFSSYAMHWVRQAPGKGLEWVAVISYDGSNKYYADSVKGRFTISRDNSKNTLYLQMNSLRAEDTAVYYCASKRELHSFDYWGQGTLVTVSS
VL: DVVMTQSPLSLPVTPGEPASISCRSSQSLLQSNGHNYLNWYLQKPGQSPQVLIYLASNRASGVPDRFSGSGSGTDFTLKISRVEAEDVGIYYCMQGLQIPLTFGGGTKVEIKR
B6: 47-01.D05 (antibody, V domains shown)
VH: QITLKESGPTLVKPTQTLTLTCTFSGFSLSTSGVGVGWIRQPPGKALEWLALIYWDDDKRYSPSLKSRLTITKDTSKNQVVLTMTNMDPVDTATYYCAHSGSVGYALYFDYWGQGTLVTVSS
VL: QAVLTQPPSSSASPGESARLTCTLPSDINVRYYNIYWYQQKPGSPPRYLLYYQSDSHKGRGSGVPSRFSGSKDTSANTGILLISGLQSEDEADYYCMIWASNGSGVLGGGTQLTVLG
B7: 49-01.F01 (antibody, V domains shown)
VH: EVQLVESGGGVVKPGESLRLLCTASGLSFNKYSINWVRQAPGGGLEWVSSIESGSGHIYYADSLEGRFTISRDNAKNSVTLEMNSLRVEDTALYYCVSGPEDKWLLQLYFESWGQGTLVTVSS
VL: EIVLTQSPATLSLSPGERATLSCRTSQSSPSDNLAWYQHKPGQAPRLLIYGGSNRATGIPARFSGSGSGTDFTLTISSLEPEDFAVYYCQQYGSSPLTFGGGTKVDIKR
B8: 49-01.D06 (antibody, V domains shown)
VH: QVQLVQSGAEVKKPGTSVKVSCKASGYTFTTYTMHWVRQAPGQRLEWMGWINTGNGNTKYSQKFQDRVTITRDTSASTAYMELSSLKFEDTAVYYCAREGVTIFGDHSYYYGMDVWGQGTTVTVSS
VL: QPVLTQSSSASASLGSSVKLTCTLSSGHSSYIIAWHQQQPGKAPRYLMKLEGSGSYNKGSGLPDRFSGSSSGADRYLTISNLQSEDEADYYCETWDGNTWVFGGGTQLTVLG
B9: 49-01.F05 (antibody, V domains shown)
VH: QVQLQQWGAGLLKPSETLSLTCAVYGGSFSGYYWSWIRQPPGKGLEWIGEINHSGSTNYNPSLKSRVTISVDTSKNQFSLKLSSVTAADTAVYYCARGWRGGSFMDVWGQGTTVTVSS
VL: QSALTQPRSVSGSPGQSVTISCTGTSSDVGGYNYVSWYQQHPGKAPKLMIYDVIKRPSGVPDRFSGSRSGNTASLTISGLQAEDEADYYCCSYAGTHWVFGGGTKLTVLG
B10: 50-01.F03 (antibody, V domains shown)
VH: EVQLVEIGGGLIQPGRSLRLSCAASGFTFSSYAMHWVRQAPGKGLEWVAVISYDGSKKYYADSVKGRFTISRDNSKNTVHLQMNSLRVEDTAVYYCALLSRPHYGLDVWGQGTTVTVSS
VL: QSVLTQPPSVSAAPGQKVTISCSGSRSNVGGNFLSWYQHVPGTPPQLLIYDNYKRPSEIPDRFSGSKSGTSATLDITGLQTGDEADYYCGTWDSSLSSWVFGGGTQLTVLG

Target: T3, human VSTM5-EGFP (SEQ ID NO:133) expressed on HEK-293 cells (human)
T3 construct: Full-length human VSTM5 fused at its C-terminus to EGFP; also called VSTM5_GFP
Test: FACS, IgG1 at 22 nM on 293-huVSTM5 (VSTM5-EGFP) cells; grade from ratio to 293-MT control cells (50-400)

Binder | ratio of 293-huVSTM5 cell binding / 293-MT control cell binding (FACS) at 22 nM mAb [ratio]
B1 | 50 to 400

Target: T3, human VSTM5-EGFP (SEQ ID NO:133) …
Test: FACS, IgG1 at 22 nM on 293-huVSTM5 (VSTM5-EGFP) cells; grade from ratio to 293-MT control cells (850-2000)

Binder | ratio of 293-huVSTM5 cell binding / 293-MT control cell binding (FACS) at 22 nM mAb [ratio]
B2 | 850 to 2000
B3 | 850 to 2000

Target: T1, mouse VSTM5 (SEQ ID NO:11) expressed on …
Test: FACS titration on 293-muVSTM5 cells, panel 'Ab binding vs. mouse VSTM5'

Binder | binding result
B4 | no binding
B2 | no binding
B3 | no binding
B5 | no binding
B1 | no binding
B6 | no binding
B7 | no binding
B8 | no binding
B9 | no binding
B10 | no binding

Target: T2, VSTM5 monomer
Test: SPR, VSTM5 monomer binding to the IgG

Binder | Kd [nM]
B1 | 52.8
B6 | 60.7
B7 | 2
B9 | 190

Target: T3, human VSTM5-EGFP (SEQ ID NO:133) …
Test: FACS titration of the human IgG1 on 293-huVSTM5 cells, 293-MT control cells as open squares; y axis MFI (anti-Human A647)

Binder | EC50 (read off the curve) [nM]
B4 | ~0.6
B3 | ~1
B7 | ~1

Target: T2, VSTM5 monomer
Test: SPR, VSTM5 monomer binding to the IgG (equilibrium binding constant)

Binder | Kd [nM]
B1 | 52.8
B6 | 60.7
B7 | 2
B9 | 190

Target: T3, human VSTM5-EGFP (SEQ ID NO:133) …
Test: FACS, IgG1 at 22 nM on 293-huVSTM5 (VSTM5-EGFP) cells; grade from ratio to 293-MT control cells (>2000)

Binder | ratio of 293-huVSTM5 cell binding / 293-MT control cell binding (FACS) at 22 nM mAb [ratio]
B7 | > 2000
B8 | > 2000
B9 | > 2000

Target: T3, human VSTM5-EGFP (SEQ ID NO:133) …
Test: FACS titration of the human IgG1 on 293-huVSTM5 cells, 293-MT control cells as open squares; y axis MFI (anti-Human A647)
Remark: another data set of the same source

Binder | EC50 (read off the curve) [nM]
B6 | ~2
B10 | ~0.7

Target: T3, human VSTM5-EGFP (SEQ ID NO:133) …
Test: FACS, IgG1 at 22 nM on 293-huVSTM5 (VSTM5-EGFP) cells; grade from ratio to 293-MT control cells (<50)

Binder | ratio of 293-huVSTM5 cell binding / 293-MT control cell binding (FACS) at 22 nM mAb [ratio]
B5 | < 50

Target: T3, human VSTM5-EGFP (SEQ ID NO:133) …
Test: FACS, IgG1 at 22 nM on 293-huVSTM5 (VSTM5-EGFP) cells; grade from ratio to 293-MT control cells (400-850)
Experimental: Empty vector control cells and human VSTM5 EGFP suspension 293 cells were pelleted and stained in 50 μl of the indicated concentrations of anti-VSTM5 antibodies or isotype controls in FACS buffer at 4° C. for 60 mins. Cells were washed once in FACS buffer, re-suspended in 50 μl of 1:250 dilution of biotinylated anti-human IgG (Jackson cat#109-065-097) for 30 mins at 4° C. Cells were washed in FACS buffer, re-suspended in 50 μl of 1:100 dilution of SA-PE (Jackson cat#016-110-084) for 30 mins. Cells were washed twice and re-suspended in a final volume of 100 μl of FACS buffer. Samples were read on the Intellicyt HTFC. Data was analyzed by FCS Express (DeNovo, Calif., USA), exported to Excel (Microsoft, WA, USA) and plotted in GraphPad Prism® (GraphPad Software, Inc., CA, USA).

Binder | ratio of 293-huVSTM5 cell binding / 293-MT control cell binding (FACS) at 22 nM mAb [ratio]
B4 | 400 to 850
B6 | 400 to 850
B10 | 400 to 850
